In the test the target is biotinylated human DLL3 protein expressed as a human IgG1 fusion protein (human) (UniProt Q9NYJ7). As to the kind of experiment: Octet, biotinylated human DLL3-IgG1 fusion on streptavidin tips, single 50 nM, conditioned medium (relative KD).
biotinylated human DLL3 protein expressed as a human IgG1 fusion protein (human), sequence (Q9NYJ7 27-492): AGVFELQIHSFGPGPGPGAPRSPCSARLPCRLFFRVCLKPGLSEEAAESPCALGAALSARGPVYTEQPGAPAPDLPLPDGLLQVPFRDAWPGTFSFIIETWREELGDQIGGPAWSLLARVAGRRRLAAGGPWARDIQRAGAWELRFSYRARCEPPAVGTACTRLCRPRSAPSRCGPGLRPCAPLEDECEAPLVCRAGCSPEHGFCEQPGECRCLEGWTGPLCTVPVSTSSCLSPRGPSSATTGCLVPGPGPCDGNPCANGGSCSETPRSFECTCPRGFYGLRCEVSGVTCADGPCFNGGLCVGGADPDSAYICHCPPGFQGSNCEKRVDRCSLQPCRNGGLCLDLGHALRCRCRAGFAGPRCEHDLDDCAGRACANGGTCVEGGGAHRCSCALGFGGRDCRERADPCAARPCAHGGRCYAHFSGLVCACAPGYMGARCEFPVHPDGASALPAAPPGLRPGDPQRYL

B1: anti-DLL3 trispecific protein, DLL3 binder 3A010 (protein, part only; not given: anti-CD3 fragment and anti-albumin sdAb, part only)
chain, part: EVQLVESGGGLVQPGGSLTLSCAASGSRVSFLSMAWYRQAPGKKRELVAGISADGSTLYIDSVKGRFTISRDNAKNSVYLQMNSLRAEDTAVYYCYAYRWTTRRTYWGQGTLVTVSSGGGGSGGGSGGGGSGGGSHHHHHH
B1: the Kd (commonly the free concentration of one partner at which half of the binding sites on the other are occupied at equilibrium, for simple one-to-one binding) stood at 12 nM.

B2: anti-DLL3 trispecific protein, DLL3 binder 4H03 (protein, part only; not given: CD3 binder and albumin binder, part only)
chain, part: EVQLVESGGGLVQPGGSLTLSCAASGSRVSFLSMAWYRQAPGKKRELVAGISADGSTSYIDSVKGRFTISRDNAKNSVYLQMNSLRAEDTAVYYCYAYRWTTRYTYWGQGTLVTVSSGGGGSGGGSGGGGSGGGSHHHHHH
Consider B2, for which the Kd stood at 13 nM.

B3: anti-DLL3 trispecific protein, DLL3 binder 3H07 (protein, part only; not given: anti-CD3 and anti-albumin domains, part only)
chain, part: EVQLVESGGGLVQPGGSLTLSCAASGSRVSFLSMAWYRQAPGKKRELVAGISADGSTSYIDSVKGRFTISRDNAKNSVYLQMNSLRAEDTAVYYCYAYRWRTRYTYWGQGTLVTVSSGGGGSGGGSGGGGSGGGSHHHHHH
In the case of B3, the equilibrium dissociation constant (Kd) was 13 nM.

B4: anti-DLL3 trispecific protein, DLL3 binder 3B02 (protein, part only; not given: CD3 fragment and albumin sdAb, part only)
chain, part: EVQLVESGGGLVQPGGSLTLSCAASGSSVQFLSMAWYRQAPGKKRELVAGISADGSTDYINSVKGRFTISRDNAKNSVYLQMNSLRAEDTAVYYCYAYRWRTRYTYWGQGTLVTVSSGGGGSGGGSGGGGSGGGSHHHHHH
As to B4, the Kd was 12 nM.

B5: anti-DLL3 trispecific protein, DLL3 binder 3A08 (protein, part only; not given: CD3 binder and albumin binder, part only)
chain, part: EVQLVESGGGLVQPGGSLTLSCAASGSSVGFLSMAWYRQAPGKKRELVAGISADGSTDYIRSVKGRFTISRDNAKNSVYLQMNSLRAEDTAVYYCYAYRWRTRYTYWGQGTLVTVSSGGGGSGGGSGGGGSGGGSHHHHHH
For the molecule B5, the Kd amounted to 12 nM.

B6: anti-DLL3 trispecific protein, DLL3 binder 3G08 (protein, part only; not given: anti-CD3 fragment and anti-albumin sdAb, part only)
chain, part: EVQLVESGGGLVQPGGSLTLSCAASGSRVSFLSMAWYRQAPGKKRELVAGISKDGSTDYIDSVKGRFTISRDNAKNSVYLQMNSLRAEDTAVYYCYAYRWTTRVTYWGQGTLVTVSSGGGGSGGGSGGGGSGGGSHHHHHH
Take B6: the Kd was determined as 12 nM. This counts as double-digit nanomolar.

B7: anti-DLL3 trispecific protein, DLL3 binder 4F03 (protein, part only; not given: CD3 binder and albumin binder, part only)
chain, part: EVQLVESGGGLVQPGGSLTLSCAASGSSVQFLSMAWYRQAPGKKRELVAGISYDGSTDYIDSVKGRFTISRDNAKNSVYLQMNSLRAEDTAVYYCYAYRWRTRYTYWGQGTLVTVSSGGGGSGGGSGGGGSGGGSHHHHHH
On to B7, for which the Kd turned out to be 12 nM.

B8: anti-DLL3 trispecific protein, DLL3 binder 3F03 (protein, part only; not given: CD3 fragment and albumin sdAb, part only)
chain, part: EVQLVESGGGLVQPGGSLTLSCAASGSSVSFLSMAWYRQAPGKKRELVAGISADGSTDYIDSVKGRFTISRDNAKNSVYLQMNSLRAEDTAVYYCYAYRWRTRYTYWGQGTLVTVSSGGGGSGGGSGGGGSGGGSHHHHHH
The molecule B8 registered a Kd of 13 nM.

B9: anti-DLL3 trispecific protein, DLL3 binder 3G06 (protein, part only; not given: CD3 binder and albumin binder, part only)
chain, part: EVQLVESGGGLVQPGGSLTLSCAASGSSVKFLSMAWYRQAPGKKRELVAGISADGSTLYIDSVKGRFTISRDNAKNSVYLQMNSLRAEDTAVYYCYAYRWTTRRTYWGQGTLVTVSSGGGGSGGGSGGGGSGGGSHHHHHH
With B9, the Kd amounted to 12 nM.

B10: anti-DLL3 trispecific protein, DLL3 binder 4E011 (protein, part only; not given: anti-CD3 fragment and anti-albumin sdAb, part only)
chain, part: EVQLVESGGGLVQPGGSLTLSCAASGSSVSFLSMAWYRQAPGKKRELVAGISATGSTDYIDSVKGRFTISRDNAKNSVYLQMNSLRAEDTAVYYCYAYRWSTRYTYWGQGTLVTVSSGGGGSGGGSGGGGSGGGSHHHHHH
B10 gave a Kd of 13 nM. This Kd and that of the molecule before are within 1.5-fold of each other.

B11: anti-DLL3 trispecific protein, DLL3 binder 3D010 (protein, part only; not given: CD3 binder and albumin binder, part only)
chain, part: EVQLVESGGGLVQPGGSLTLSCAASGSSKSFLSMAWYRQAPGKKRELVAGISADGSTSYIDSVKGRFTISRDNAKNSVYLQMNSLRAEDTAVYYCYAYRWTTRYTYWGQGTLVTVSSGGGGSGGGSGGGGSGGGSHHHHHH
B11 yielded a Kd of 14 nM.

B12: anti-DLL3 trispecific protein, DLL3 binder 3A03 (protein, part only; not given: CD3 fragment and albumin sdAb, part only)
chain, part: EVQLVESGGGLVQPGGSLTLSCAASGSRVSFLSMAWYRQAPGKKRELVAGISRDGSTDYIDSVKGRFTISRDNAKNSVYLQMNSLRAEDTAVYYCYAYRWTTRRTYWGQGTLVTVSSGGGGSGGGSGGGGSGGGSHHHHHH
The molecule B12 displayed a Kd of 12 nM.

B13: anti-DLL3 trispecific protein, DLL3 binder 3G07 (protein, part only; not given: anti-CD3 fragment and anti-albumin sdAb, part only)
chain, part: EVQLVESGGGLVQPGGSLTLSCAASGSSVSFLSMAWYRQAPGKKRELVAGISRDGSTDYIDSVKGRFTISRDNAKNSVYLQMNSLRAEDTAVYYCYAYRWTSRYTYWGQGTLVTVSSGGGGSGGGSGGGGSGGGSHHHHHH
B13 showed a Kd of 13 nM.

B14: anti-DLL3 trispecific protein, DLL3 binder 3F08 (protein, part only; not given: CD3 fragment and albumin sdAb, part only)
chain, part: EVQLVESGGGLVQPGGSLTLSCAASGSRVSFLSMAWYRQAPGKKRELVAGISADGSTLYIDSVKGRFTISRDNAKNSVYLQMNSLRAEDTAVYYCYAYRWHTRYTYWGQGTLVTVSSGGGGSGGGSGGGGSGGGSHHHHHH
Consider B14, for which the Kd stood at 14 nM.

B15: anti-DLL3 trispecific protein, DLL3 binder 3H09 (protein, part only; not given: anti-CD3 fragment and anti-albumin domain, part only)
chain, part: EVQLVESGGGLVQPGGSLTLSCAASKSSVSFLSMAWYRQAPGKKRELVAGISADGSTDYIDSVKGRFTISRDNAKNSVYLQMNSLRAEDTAVYYCYAYRWTTRATYWGQGTLVTVSSGGGGSGGGSGGGGSGGGSHHHHHH
The molecule B15 returned a Kd of 14 nM. In other words, the double-digit nanomolar range.

B16: anti-DLL3 trispecific protein, DLL3 binder 4A06 (protein, part only; not given: anti-CD3 fragment and anti-albumin domain, part only)
chain, part: EVQLVESGGGLVQPGGSLTLSCAASGSSVRFLSMAWYRQAPGKKRELVAGISRDGSTDYIDSVKGRFTISRDNAKNSVYLQMNSLRAEDTAVYYCYAYRWTTRRTYWGQGTLVTVSSGGGGSGGGSGGGGSGGGSHHHHHH
For B16, the Kd is 13 nM. The Kd values of the last two molecules are within 1.5-fold of each other.

B17: anti-DLL3 trispecific protein, DLL3 binder 4B04 (protein, part only; not given: anti-CD3 fragment and anti-albumin sdAb, part only)
chain, part: EVQLVESGGGLVQPGGSLTLSCAASGSSVLFLSMAWYRQAPGKKRELVAGVSSDGSTDYIDSVKGRFTISRDNAKNSVYLQMNSLRAEDTAVYYCYAYRWRTRYTYWGQGTLVTVSSGGGGSGGGSGGGGSGGGSHHHHHH
In the case of B17, the Kd was determined as 12 nM.

B18: anti-DLL3 trispecific protein, DLL3 binder 3B010 (protein, part only; not given: anti-CD3 and anti-albumin domains, part only)
chain, part: EVQLVESGGGLVQPGGSLTLSCAASGSSVSFLSMAWYRQAPGKKRELVAGISRDGSTDYIDSVKGRFTISRDNAKNSVYLQMNSLRAEDTAVYYCYAYRWVTRYTYWGQGTLVTVSSGGGGSGGGSGGGGSGGGSHHHHHH
In turn, B18 displayed a Kd of 12 nM.

B19: anti-DLL3 trispecific protein, DLL3 binder 3C01 (protein, part only; not given: CD3 binder and albumin binder, part only)
chain, part: EVQLVESGGGLVQPGGSLTLSCAASGSSVRFLSMAWYRQAPGKKRELVAGISAHGSTDYIDSVKGRFTISRDNAKNSVYLQMNSLRAEDTAVYYCYAYRWSTRYTYWGQGTLVTVSSGGGGSGGGSGGGGSGGGSHHHHHH
In the case of B19, the Kd was determined as 14 nM.

B20: anti-DLL3 trispecific protein, DLL3 binder 3F09 (protein, part only; not given: anti-CD3 fragment and anti-albumin sdAb, part only)
chain, part: EVQLVESGGGLVQPGGSLTLSCAASGSSVRFLSMAWYRQAPGKKRELVAGISRDGSTDYIDSVKGRFTISRDNAKNSVYLQMNSLRAEDTAVYYCYAYRWGTRYTYWGQGTLVTVSSGGGGSGGGSGGGGSGGGSHHHHHH
B20 displayed a Kd of 12 nM.

B21: anti-DLL3 trispecific protein, DLL3 binder 3C011 (protein, part only; not given: anti-CD3 fragment and anti-albumin domain, part only)
chain, part: EVQLVESGGGLVQPGGSLTLSCAASGSSVRFLSMAWYRQAPGKKRELVAGISAHGSTDYIDSVKGRFTISRDNAKNSVYLQMNSLRAEDTAVYYCYAYRWRTRYTYWGQGTLVTVSSGGGGSGGGSGGGGSGGGSHHHHHH
Turning to B21, the Kd came out at 14 nM.

B22: anti-DLL3 trispecific protein, DLL3 binder 2C01 (protein, part only; not given: anti-CD3 fragment and anti-albumin sdAb, part only)
chain, part: EVQLVESGGGLVQPGGSLTLSCVASGSTASINAMGWYRRAPGKQRELVAGISSDGSKVYADSVKGRFTISRDNAKNSVYLQMNSLRAEDTAVYYCYYFRYVSGSSMRYWGQGTLVTVSSGGGGSGGGSGGGGSGGGSHHHHHH
B22 yielded a Kd of 12 nM.

B23: anti-DLL3 trispecific protein, DLL3 binder 2G011 (protein, part only; not given: anti-CD3 fragment and anti-albumin sdAb, part only)
chain, part: EVQLVESGGGLVQPGGSLTLSCVASGSTSSINAMGWYRRAPGKQRELPAGISRDGSKVYADSVKGRFTISRDNAKNSVYLQMNSLRAEDTAVYYCYYFRYVSGSSMRYWGQGTLVTVSSGGGGSGGGSGGGGSGGGSHHHHHH
Regarding B23, the Kd turned out to be 13 nM.

B24: anti-DLL3 trispecific protein, DLL3 binder 1H06 (protein, part only; not given: anti-CD3 fragment and anti-albumin sdAb, part only)
chain, part: EVQLVESGGGLVQPGGSLTLSCVASGTTSSINAMGWYRRAPGKQRELVAGISSDGSKVYVDSVKGRFTISRDNAKNSVYLQMNSLRAEDTAVYYCYYFRFLSGSSMRYWGQGTLVTVSSGGGGSGGGSGGGGSGGGSHHHHHH
B24 had a Kd of 14 nM.

B25: anti-DLL3 trispecific protein, DLL3 binder 1F07 (protein, part only; not given: CD3 fragment and albumin sdAb, part only)
chain, part: EVQLVESGGGLVQPGGSLTLSCVASGSTSSINAMGWYRRAPGKQRELVAGISSDGSKVDADSVKGRFTISRDNAKNSVYLQMNSLRAEDTAVYYCYYFRTVSGSSMRYWGQGTLVTVSSGGGGSGGGSGGGGSGGGSHHHHHH
B25 returned a Kd of 13 nM.

B26: anti-DLL3 trispecific protein, DLL3 binder 1B08 (protein, part only; not given: CD3 binder and albumin binder, part only)
chain, part: EVQLVESGGGLVQPGGSLTLSCVASGTTSSINAMGWYRRAPGKQRELVAGISSDGSKVYVDSVKGRFTISRDNAKNSVYLQMNSLRAEDTAVYYCYYFRFVSGSSMRYWGQGTLVTVSSGGGGSGGGSGGGGSGGGSHHHHHH
On to B26, for which the Kd is 12 nM.

B27: anti-DLL3 trispecific protein, DLL3 binder 2D02 (protein, part only; not given: anti-CD3 fragment and anti-albumin sdAb, part only)
chain, part: EVQLVESGGGLVQPGGSLTLSCVASGSTSSINALGWYRRAPGKQRELVAGISSDGSLVYADSVKGRFTISRDNAKNSVYLQMNSLRAEDTAVYYCYYFRIVSGSSMRYWGQGTLVTVSSGGGGSGGGSGGGGSGGGSHHHHHH
Molecule B27 returned a Kd of 14 nM.

B28: anti-DLL3 trispecific protein, DLL3 binder 1E05 (protein, part only; not given: anti-CD3 fragment and anti-albumin domain, part only)
chain, part: EVQLVESGGGLVQPGGSLTLSCVASGSTSVINAMAWYRRAPGKQRELAAGISSDGSKVYAKSAKGRFTISRDNAKNSVYLQMNSLRAEDTAVYYCYYFNTVSGSSMRYWGQGTLVTVSSGGGGSGGGSGGGGSGGGSHHHHHH
In turn, B28 returned a Kd of 14 nM. This counts as double-digit nanomolar.

B29: anti-DLL3 trispecific protein, DLL3 binder 1D02 (protein, part only; not given: CD3 binder and albumin binder, part only)
chain, part: EVQLVESGGGLVQPGGSLTLSCVASGSTSSINAMAWYRRAPGKQRELVAGISSNGSKVYADSVKGRFTISRDNAKNSVYLQMNSLRAEDTAVYYCYYFRQVSGSSMRYWGQGTLVTVSSGGGGSGGGSGGGGSGGGSHHHHHH
As for B29, the Kd stood at 14 nM.

B30: anti-DLL3 trispecific protein, DLL3 binder 1G05 (protein, part only; not given: anti-CD3 fragment and anti-albumin sdAb, part only)
chain, part: EVQLVESGGGLVQPGGSLTLSCVASGSTSSINAIGWYRRAPGKQRELVAGISSDGSKYYADSVKGRFTISRDNAKNSVYLQMNSLRAEDTAVYYCYYFRTVTGSSMRYWGQGTLVTVSSGGGGSGGGSGGGGSGGGSHHHHHH
B30 had a Kd of 14 nM.

The values are drawn from patent US20200095340A1.
